The RNAGym collection of RNA variant scans (doi:10.1073/pnas.2313332121)

B1: TPR t1 (parent)
chain: GACCAAUCUGCCCUCAGAGCUCGAGAACAUCUUCGGAUGCAGAGGAGGCAGGCUUCGGUGGCGCGAUAGCGCCAACGUCCUCAACCUCCAAUGCAUCCCACCACAUGAUGAUGCCUGAAGAGCCUUGGUUUUUUG

Variants of: B1
Experiment: polymerase ribozyme fitness, log enrichment relative to wild type (log ratio); higher = more active; in vitro selection for triplet polymerase activity
How it was run: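 The heterodimeric triplet polymerase ribozyme's subunits were each mutagenized into PCR-built libraries and transcribed. Every library was selected once, in triplicate, by annealing with a biotinylated primer, the partner subunit and triplets, incubating frozen at −7 °C, gel-excising extended constructs, capturing on streptavidin beads and running RT-PCR. Input and output libraries were Illumina-sequenced, with genotypes kept only at ≥10 input reads and ≥1 read per output. Fitness, from inverse-variance-weighted replicate averages, is the base-2 logarithm of genotype enrichment over wild-type enrichment.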

Row | Variant | polymerase ribozyme fitness (log ratio)
1 | A2G C123G | 1.69
2 | A2G G10C G51C G52U | -5.66
3 | A2G G10U A43U C62G C79U | -3.6
4 | A2G G19A A43G C80U C104U | -4.42
5 | A2G G19U C34U G47A C49A C80A G93C G120U | -6.24
6 | A2G G19U G120U | -2.98
7 | A2G G35C C124A | -4.18
8 | A2G G36C G48U G52U U59G C79G U112C | 0.109
9 | A2G G39U G57C A74U U112A C114G | -2.17
10 | A2G G42U G69A C123A | -5.6
11 | A2G G45U C82A | -2.5
12 | A2G G47U A84C C88U A90U A91C U133G | -2.71
13 | A2G G48U C80U U130C | -2.35
14 | A2G G51A C73G | -2.89
15 | A2G G52U G69C C86U | -1.64
16 | A2G G60C G71U A91C G120C | -6.25
17 | A2G G61A | 0.0396
18 | A2G G61A U116A | -4.16
19 | A2G G63A C99U C101A A121G C124G | -4.81
20 | A2G G63C | -0.0882
21 | A2G G63C U116A | -4.03

Row | Variant | polymerase ribozyme fitness (log ratio)
22 | A2G G71U | -0.153
23 | A2G G93C | -1.48
24 | A2G G107U | -5.37
25 | A2G G110U A118G | -1.67
26 | A2G G120A | 0.359
27 | A2G G122A U129C | -1.77
28 | A2G U7A C12A G39A C82A G122A | -0.0716
29 | A2G U7A C70U A74C | -0.954
30 | A2G U9C C13U A18U C56G A95G | -1.78
31 | A2G U9C C13U A18U C56G C72G A95G | -4.64
32 | A2G U9G G10U A27C C56G | -3.86
33 | A2G U21A G69U G71C | -4.01
34 | A2G U55G G71A A95U | -1.12
35 | A2G U55G G135U | -1.42
36 | A2U A5C A26G U54A | -4.4
37 | A2U A6G C12U A24G C56A C97U | -3.05
38 | A2U A6G G17U G39U G52U C73G | -5.54
39 | A2U A16G A26U G60U A119G | -4.84
40 | A2U A16U U96A G128A | -4.83
41 | A2U A37G G61A U87G | -2.89
42 | A2U A37U C62U C72U U78A C124G | -0.559

Row | Variant | polymerase ribozyme fitness (log ratio)
43 | A2U A46U G47C G71A U132C | -3.81
44 | A2U A50U | -3.14
45 | A2U A91C G120U | -3.98
46 | A2U A108G | -3.51
47 | A2U A121U | -0.628
48 | A2U C4A U33G C49G G58C A121C | -5.98
49 | A2U C8G A27C G36C C40G G60A G93C G110U U130G | -5.89
50 | A2U C8U G47C G93U | -4.25
51 | A2U C8U G69U C82G C114U | -2.12
52 | A2U C11A U33A A37U G61U G120A | -4.91
53 | A2U C11G | 0.322
54 | A2U C11G G48U G93U G120C G122U | -1.28
55 | A2U C11U G45A U81C | -6.34
56 | A2U C12A G63U C104G U109C | -6.12
57 | A2U C12U A27U G47A | -5.43
58 | A2U C12U G110A U129C | -1.58
59 | A2U C13A C28U U112G | -6
60 | A2U C13A C73G | -5.15
61 | A2U C13A C73U A74G | -3.05
62 | A2U C13U A50G G63A U112C | -1.43
63 | A2U C13U G77C | -1.85

Row | Variant | polymerase ribozyme fitness (log ratio)
64 | A2U C15G | -4.66
65 | A2U C22U C86U G110U | -6.04
66 | A2U C40A G128U | -4.11
67 | A2U C40U C115A U133G | -2.75
68 | A2U C40U G47U C72U C124A | -3.11
69 | A2U C53G C88G | -3.42
70 | A2U C56A G120C | -2.63
71 | A2U C62U G117U | -5.02
72 | A2U C72U G110A | -4.59
73 | A2U C76A | -3.43
74 | A2U C82U C86G A121G | -0.832
75 | A2U C88G U130A | -2.84
76 | A2U C99U | -5.84
77 | A2U C102U G113A U129A | -2.88
78 | A2U C115G | -3.95
79 | A2U G10U A100C | -4.35
80 | A2U G35U G69U C79U G120A G128A | -3.99
81 | A2U G39C G45A U132A | -3.5
82 | A2U G42A A83U C88U | -5.05
83 | A2U G47A C72A A121G | -0.127
84 | A2U G51A C123A | -4.9
